Measurements taken from the supplement of paper PMC9170038.

Test system: MS2 coat protein
Assay: apparent KD of MS2 coat protein; designed switch direction (-1 OFF switch, 1 ON switch): -1; higher = weaker reporter binding
Method in brief: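 Stalled E. coli RNA polymerase transcribed designed RNA switches on Illumina chips, which were then titrated with SNAP-549-labelled MS2 coat protein, doubling from 0.7 or 1.5 nM to 3 µM. Steps lasted from 0.8–1.5 h at the lowest concentration to 10–20 min at the highest. The apparent KD is each design's median over clusters of curve-fitted normalised fluorescence.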

[1] = Eterna round: R95, input ligand: microRNA oligo, concentration not stated
[2] = Eterna round: R95, input ligand: FMN 200 uM
[3] = Eterna round: R95, input ligand: none

## CAGUACUGAGGAUAUACAUGAGGAUCACCCAUGUGUGUGAGAAAAGGAAGAAAAGAAUGUAGAAGGCGGUGCUG [JR_Ex3_Sub040] (Eterna round: R97, puzzle: Exclusion 3)
Input ligand: FMN 200 uM
  apparent KD of MS2 coat protein: 240 nM
Input ligand: none
  apparent KD of MS2 coat protein: 486 nM

## CAGUACUGAGGAUAUACAUGAGGAUCACCCAUGUGUGUGAGAAUUGUGUGGUUGUUUUGUAGAAGGCGGUGCUG [JR_Ex3_Sub032] (Eterna round: R97, puzzle: Exclusion 3)
Input ligand: FMN 200 uM
  apparent KD of MS2 coat protein: 326 nM
Input ligand: none
  apparent KD of MS2 coat protein: 346 nM

## CAGUACUGAGGAUAUACAUGAGGAUCACCCAUGUGUUCCAGCUAGGAAACUAGCAAAAUUAGAAGGCAGUACUG [salish99_ex3_r3_087] (puzzle: Exclusion 3)
[1]
  apparent KD of MS2 coat protein: 11.3 nM

## CAGUACUGAGGAUAUACAUGAGGAUCACCCAUGUGUUCCAGCUAGGAAACUAGCAAAUGUAGAAGGCAGUACUG [Ex3: 827] (Eterna round: R96, puzzle: Exclusion 3)
Input ligand: microRNA oligo, concentration not stated
  apparent KD of MS2 coat protein: 216 nM

## CAGUACUGAGGAUAUACAUGAGGAUCACCCAUGUGUUCCAGCUAGGAAACUAGCAAAUGUAGAAGGCAGUACUG [Salish 065 m8] (Eterna round: R97, puzzle: Exclusion 3)
Input ligand: FMN 200 uM
  apparent KD of MS2 coat protein: 45.1 nM
Input ligand: none
  apparent KD of MS2 coat protein: 323 nM

## CAGUACUGAGGAUAUACAUGAGGAUCACCCAUGUGUUCCAGCUAGGAAACUAGCAAAUGUAGAAGGCAGUACUG [salish99_ex3_r3_089 (STABLE!)] (puzzle: Exclusion 3)
[2]
  apparent KD of MS2 coat protein: 94.1 nM
[1]
  apparent KD of MS2 coat protein: 217 nM
[3]
  apparent KD of MS2 coat protein: 234 nM

## CAGUACUGAGGAUAUACAUGAGGAUCACCCAUGUGUUCCAGCUAGGAAACUAGCAAUGGAAGAAGGCAGUACUG [Salish 065 m1] (Eterna round: R97, puzzle: Exclusion 3)
Input ligand: FMN 200 uM
  apparent KD of MS2 coat protein: 18.8 nM
Input ligand: none
  apparent KD of MS2 coat protein: 21.6 nM

## CAGUACUGAGGAUAUACAUGAGGAUCACCCAUGUGUUCCAGCUAGGAAACUAGCGAAUGUAGAAGGCAGUACUG [jl-ex3-4.22 salish99 mod] (Eterna round: R97, puzzle: Exclusion 3)
Input ligand: FMN 200 uM
  apparent KD of MS2 coat protein: 451 nM
Input ligand: none
  apparent KD of MS2 coat protein: 355 nM

## CAGUACUGAGGAUAUACAUGAGGAUCACCCAUGUGUUCCAGCUAGGAAAGUAGCAAAAGUAGAAGGCAGUACUG [salish99_ex3_r3_072] (puzzle: Exclusion 3)
[2]
  apparent KD of MS2 coat protein: 291 nM
[1]
  apparent KD of MS2 coat protein: 26.7 nM
[3]
  apparent KD of MS2 coat protein: 21.6 nM

## CAGUACUGAGGAUAUACAUGAGGAUCACCCAUGUGUUCCAGCUAGGAUACUAGCAAUGGAAGAAGGCAGUACUG [Mat - Exclusion 3 - Eli Mod - D1] (Eterna round: R97, puzzle: Exclusion 3)
Input ligand: FMN 200 uM
  apparent KD of MS2 coat protein: 17.2 nM
Input ligand: none
  apparent KD of MS2 coat protein: 16.8 nM

## CAGUACUGAGGAUAUACAUGAGGAUCACCCAUGUGUUCCUGCUAGGAUACUAGCAAGGGUAGAAGGCAGUACUG [Mat - Exclusion 3 - Eli Mod - D4] (Eterna round: R97, puzzle: Exclusion 3)
Input ligand: FMN 200 uM
  apparent KD of MS2 coat protein: 59.4 nM
Input ligand: none
  apparent KD of MS2 coat protein: 19.7 nM

## CAGUACUGAGGAUAUACAUGAGGAUCACCCAUGUGUUGCAGCUAGGAAACUAGCAAAAGUAGAAGGCAGUACUG [salish99_ex3_r3_081] (puzzle: Exclusion 3)
[1]
  apparent KD of MS2 coat protein: 12 nM

## CAGUACUGAGGAUAUACAUGAGGAUCACCCAUGUUAGAGAUACUAGUGAGGUCGAUUAGUAGAAGGCAGUACUG [Mat X3R4 m24] (Eterna round: R97, puzzle: Exclusion 3)
Input ligand: FMN 200 uM
  apparent KD of MS2 coat protein: 557 nM
Input ligand: none
  apparent KD of MS2 coat protein: 44.9 nM

## CAGUACUGAGGAUAUACAUGAGGAUCACCCAUGUUCUUCAGCUAGGAUACUAGCAAAGGUAGAAGGCAGUACUG [Mat - Exclusion 3 - Eli Mod - D28] (Eterna round: R97, puzzle: Exclusion 3)
Input ligand: FMN 200 uM
  apparent KD of MS2 coat protein: 611 nM
Input ligand: none
  apparent KD of MS2 coat protein: 30.1 nM

## CAGUACUGAGGAUAUACAUGAGGAUCACCCAUGUUCUUCGGCUAGGAUACUAGCAAAGGUAGAAGGCAGUACUG [Mat - Exclusion 3 - Eli Mod - D27] (Eterna round: R97, puzzle: Exclusion 3)
Input ligand: FMN 200 uM
  apparent KD of MS2 coat protein: 144 nM
Input ligand: none
  apparent KD of MS2 coat protein: 18.7 nM

## CAGUAUUGAGGAUAUACAUGAGGAUCACCCAUGUGUUCCAGCUAGGAAACUAGCAAAAGUAGAAGGCAGUACUG [salish99_ex3_r3_085] (puzzle: Exclusion 3)
[1]
  apparent KD of MS2 coat protein: 21 nM

## CAGUGACAUGAGGAUCACCCAUGUCAGGAUAUCUGUACCAUCCGACGGAGGUCCAGACAGAGAAGGGACUUGGG [Eternabot (L1) Solution 31] (Eterna round: R97, puzzle: Exclusion 1)
Input ligand: FMN 200 uM
  apparent KD of MS2 coat protein: 76.9 nM
Input ligand: none
  apparent KD of MS2 coat protein: 49.9 nM

## CAUACAGUAGUUAGGAUAUUGCAACACACACGGAACGAGAAGGGACAUGAGGAUCACCCAUGUAGACUGUAAAG [EX-4 Malc #6] (puzzle: Brourd's mod of Exclusion 4)
[2]
  apparent KD of MS2 coat protein: 20.7 nM
[1]
  apparent KD of MS2 coat protein: 27.2 nM
[3]
  apparent KD of MS2 coat protein: 24.5 nM
